The results in this text go back to US8759482B2, “Kinetically efficient substrate for lipoic acid ligase” (Massachusetts Institute of Technology, priority 2009, dated 2014).

Substrate in the data set: CC[C@H](C)[C@H](NC(=O)[C@H](CCC(=O)O)NC(=O)[C@H](Cc1ccccc1)NC(=O)CN)C(=O)N[C@@H](CC(=O)O)C(=O)N[C@@H](CCCCN)C(=O)N[C@H](C(=O)N[C@@H](Cc1c[nH]c2ccccc12)C(=O)N[C@@H](Cc1ccc(O)cc1)C(=O)N[C@@H](CC(=O)O)C(=O)N[C@@H](CC(C)C)C(=O)N[C@@H](CC(=O)O)C(=O)N[C@@H](C)C(=O)O)C(C)C
As to the kind of experiment: Lp1A-catalyzed lipoylation kinetics (kcat, Km) by HPLC. The data set is classed as biochemical, Escherichia coli. The note with it: other: synthetic LAP2 peptide, 50 nM Lp1A, 750 μM lipoic acid, 30° C.

Protocol: Various concentrations of synthetic LAP2 peptide (not a fusion protein) were lipoylated with 50 nM Lp1A, 750 μM lipoic acid, and 3 mM ATP, and initial reaction rates were measured by HPLC. […] Measurements were performed in triplicate.
Using HPLC to quantify product formation, the kcat and Km values were measured for Lp1A-catalyzed lipoylation of a synthetic LAP2 peptide (without an attached fusion protein).
To measure the kcat and Km values for lipoylation, 50 nM Lp1A was combined with 750 μM lipoic acid, 2 mM ATP, and 5 mM magnesium acetate in DPBS. Varying concentrations of LAP2 (5.5, 11, 22, 44, 88, 176, or 352 μM) were used; 60 μL aliquots were removed from the 30° C. reactions at 5 min intervals, up to 20 min, and quenched with 180 mM EDTA (final concentration). HPLC was used to determine the amount of product in each aliquot, and kinetic parameters were extracted using the Michaelis-Menten equation as described previously.^13,28

B1: Escherichia coli lipoic acid ligase (Lp1A) (Escherichia coli K-12) (protein)
chain: MSTLRLLISDSYDPWFNLAVEECIFRQMPATQRVLFLWRNADTVVIGRAQNPWKECNTRRMEEDNVRLARRSSGGGAVFHDLGNTCFTFMAGKPEYDKTISTSIVLNALNALGVSAEASGRNDLVVKTVEGDRKVSGSAYRETKDRGFHHGTLLLNADLSRLANYLNPDKKKLAAKGITSVRSRVTNLTELLPGITHEQVCEAITEAFFAHYGERVEAEIISPNKTPDLPNFAETFARQSSWEWNFGQAPAFSHLLDERFTWGGVELHFDVEKGHITRAQVFTDSLNPAPLEALAGRLQGCLYRADMLQQECEALLVDFPEQEKELRELSAWMAGAVR
With B1, the Km worked out at 13.32 ± 1.78 µM, the kcat came out at 0.22 s⁻¹ and the kcat/Km amounted to 16500 M⁻¹ s⁻¹.
